B1: COVIC-79 (antibody, V domains shown)
VH: EVQLVESGGGLIQPGGSLRLSCAASGFIVSRNYMIWVRQAPGKGLEWVSVIYSGGSTFYADSVKGRFTISRDNSKNTLYLQMNSLRAEDTAVYYCARDLEVAGAIDYWGQGTLVTVSS
VL: EIVLTQSPGTLSLSPGERATLSCRASQSISSSYLAWYQQKPGQAPRLLIYGATSRATGTPDRFSGSGSGTDFTLTINRLEPEDFAVYYCQQYGSSPGYTFGQGTKLEIK
B2: COVIC-183 (antibody, V domains shown)
VH: EVHLVESGGGLVQPGGSLRLSCAASGFTFSDHYMDWVRQAPGKGLEWVGRTRNKANSYTTEYAASVKGRFTISRDDAKNSLYLQMNSLKTEDTAVYYCARVHRWAYCINGVCFGAYSDYWGQGTLVTVSS
VL: not shown
B3: COVIC-168 (antibody, V domains shown)
VH: EVQLVESGGGLIQPGGSLRLSCAASGVTVSSNYMNWVRQAPGKGLEGVSVIYSGGTTYYADSVKGRFTISRDNSKNTLYLQMNSLRAEDTAVYYCARDTVVYGMDVWGQGTTVTVSS
VL: DIQLTQSPSFLSASVGDRVTITCWASQGISSYLAWYQQKPGKAPKLLIYTASTLQSGVPSRFSGSGSGTEFTLTISSLQPEDFATYYCQQLNSYPLTFGGGTKVEIKR
B4: COVIC-124 (antibody)
chain: QVQLQESGGGLVQAGGSLRLSCAASGRTFSEYAMGWFRQAPGKEREFVATISWSGGSTYYTDSVKGRFTISRDNAKNTVYLQMNSLKPDDTAVYYCAAAGLGTVVSEWDYDYDYWGQGTQVTVSSGGSGGSQVQLQESGGGLVQAGGSLRLSCAASGRTFSEYAMGWFRQAPGKEREFVATISWSGGSTYYTDSVKGRFTISRDNAKNTVYLQMNSLKPDDTAVYYCAAAGLGTVVSEWDYDYDYWGQGTQVTVSSGGGGSGGGGSEPKSCDKTHTCPPCPAPELLGGKKKPLDGEYFTLQIRGRERFEMFRELNEALELKDAQAGKEPGGGGGSGGGGSQVQLQESGGGLVQAGGSLRLSCAASGRTFSEYAMGWFRQAPGKEREFVATISWSGGSTYYTDSVKGRFTISRDNAKNTVYLQMNSLKPDDTAVYYCAAAGLGTVVSEWDYDYDYWGQGTQVTVSSGGSGGSQVQLQESGGGLVQAGGSLRLSCAASGRTFSEYAMGWFRQAPGKEREFVATISWSGGSTYYTDSVKGRFTISRDNAKNTVYLQMNSLKPDDTAVYYCAAAGLGTVVSEWDYDYDYWGQGTQVTVSS
B5: COVIC-366 (antibody, V domains shown)
VH: EVQLVESGGGLVQPGRSLRLSCAASGFSLDDYGMHWVRQAPGKGLEWVSGISWNSGDRGYADSVKGRFTISRDNAKNSLYLQMNSLRAEDTALYYCAKGSGAHYDIMTGARLDYWGQGTLVTVSS
VL: DIQMTQSPSSLSASVGDRVTITCRASQSITNYLNWYQQKPGKVPKLLIYAASILQSGVPSRFSGSGSGTDFTLTISSLQPEDFATYYCQQSYSTPWTFGQGTKVEIKR
B6: COVIC-134 (antibody, V domains shown)
VH: EVQLVESGGGVVQPGRSLRLSCAASGFTFSSYGMHWVRQAPGKGLEWVAVIWYDGSNKYYADSVKGRFTISRDNSKNTLYLQMNSLRAEDTAVYYCAKGPDILTGYYNYYYYGMDVWGQGTMVTVSS
VL: QSVLTQPPSVSGAPGQRVTISCTGSSSNIGAGYDVHWYQQLPGTAPKLLIYGNSNRPSGVPDRFSGSKSGTSASLAITGLQAEDEADYYCQSYDSSLSGFYVVFGGGTKLTVL
B7: COVIC-313 (antibody)
chain 1: QVQLVQSGAEVKKPGSSVKVSCKASGGTFGISWVRQAPGQGLEWMGRIIPILGTANHAQKFQGRVTITADKSTGTVYMELSSLRSEDTAVYYCARDGDSGSYYETLGFDYWGQGTLVTVSSASTKGPSVFPLAPEVQLVESGGGLVKPGGSLRLSCAASGFTFSPYSMNWVRQAPGKGLEWVSSISVSNIYTYYADSVKGRFTISRDNAKNSLYLQMNSLRAEDTAIYYCARDLKKGGIQYDAFDIWGQGTVVTVSS
chain 2: QSALTQPPSASGSPGQSVTISCTGTSSDVGGYNYVSWYQQHPGKAPKLMIYEVNKRPSGVPDRFSGSKSGNTASLTVSGLQAEDEADYYCSSYAGSNNLVFGGGTKLTVLQPKAAPSVTLFPPEIVLTQSPATLSLSPGERATLSCRASQSVNDYLAWYQQKPGQAPRLLIYDASNRATGFPARFSGSGSGTDFTLTISSLEPEDFAVYYCQQRSNWPPTFGQGTRLEIK
B8: COVIC-59 (antibody, V domains shown)
VH: QVQLQESGGGLVQAGGSLRLSCAASGRTFSEYAMGWFRQAPGKEREFVATISWSGGSTYYTDSVKGRFTISRDNAKNTVYLQMNSLKPDDTAVYYCAAAGLGTVVSEWDYDYDYWGQGTQVTVSS
B9: COVIC-252 (antibody, V domains shown)
VH: EVQLLESGGGLIQPGGSLRLSCAASGFIVSSNYMSWVRQAPGKGLEWVSVIYSGGSTFYADSVKGRFTISRDNSNNTLYLQMNSLRAEDTAVYYCARDYGDFYFDYWGQGTLVTVSS
VL: DIQMTQSPSTLSVSPGERATLSCRASQSVSSNLAWYQQKPGQAPRLLIYGASTRATGIPVRFSGSGSGTESTLTISSLQSEDFAVYYCQQYNKWPRTFGQGTKVEIK
B10: COVIC-151 (antibody, V domains shown)
VH: QVQLQESGPGLVKPSQTLSLTCTVSGGSISSYGYYWNWIRQHPGKGLEWIGYIYYSGSTYYNPSLKSRVTISVDTSKNQLSLRLNSVSAADTAVYYCARDFGGNSNYFDYWGQGTLVTVSS
VL: AIQLTQSPSSLSASVGDRVTITCRTSQGISSALAWYQQKPGKAPKLLIYDASSLESGVPSRFSGSGSGTDFTLTISSLQPEDFATYYCQQFNSYPLTFGGGTKVEIKR
B11: COVIC-139 (antibody, V domains shown)
VH: EVQLVESGGGVVQPGRSLRLSCAASGFTFSSYGMHWVRQAPGKGLEWVAVISYDGSNKYYADSVKGRFTISRDNSKNTLYLQMNSLRAEDTAVYYCANGFGEYYYYAMDVWGQGTTVTVSS
VL: NFMLTQPHSVSESPGKTVTISCTGSSGSIASNYVQWYQRRPGSAPTTVIYEDNQRPSGVPDRFSASIDSSSNSASLTISGLKTEDEADYYCQSYDSSNWVFGGGTKLTVL
B12: COVIC-141 (antibody, V domains shown)
VH: QVQLQESGPGLVKPSQTLSLTCTVSGGSISSGGYYWSWIRQHPGKGLEWIGYIYYSGNTYYNPSLKSRVTMSVDTSKNQFSLKLTSVTAADTAVYYCASTARPLTNAEYFQHWGQGTLVTVSS
VL: DIQLTQSPGTLSLSPGERATLSCRASQSVSSSYLAWYQQKPGQAPRLLIYGTSSRATGIPDRFSGSGSGTDFTLTISRLEPEDFAVYYCQQYRTFGQGTKVEIK
B13: COVIC-55 (antibody, V domains shown)
VH: QVQLQESGGGLVQAGGSLRLSCAASGRTFSEYAMGWFRQAPGKEREFVATISWSGGSTYYTDSVKGRFTISRDNAKNTVYLQMNSLKPDDTAVYYCAAAGLGTVVSEWDYDYDYWGQGTQVTVSS
B14: COVIC-369 (antibody, V domains shown)
VH: EVRLVESGGGLIQPGGSLTLSCAASGVIVSRNYMNWVRQAPGKGLEWVSVIYSGGSTFYADSVKGRFTISRDNSKNTLYLQMNSLRAEDTAVYYCARWGPNYYGSGSDHYNSYGMDVWGQGTTVTVSS
VL: EIVLTQSPGTLSLSPGESATLSCRASQGVSSSSLAWYQQRPGQAPRLLMYGASSRATGIPDRFSGSGSGTDFTLTISRLEPEDFAVYYCQQSGSSPQYTFGQGTKLEIKR
B15: COVIC-393 (antibody, V domains shown)
VH: EVQLVQSGGGLVQPGGSLKLSCAASGFTFSGSAMHWVRQASGKGLEWVGHIRSKANSYATAYAASVKGRFTISRDDSKNTAYLQMNSLNTEDTAVYYCTREDIVGVPVAKDWFDPWGQGTLVTVSS
VL: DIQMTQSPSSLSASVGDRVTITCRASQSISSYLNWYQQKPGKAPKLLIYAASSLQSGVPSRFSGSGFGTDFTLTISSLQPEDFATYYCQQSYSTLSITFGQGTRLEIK
B16: COVIC-294 (antibody, V domains shown)
VH: EVQLVESGGGLVQPGGSLRLSCAASGITVSSNYMNWVRQAPGKGLEWVSVIYSGGSTFYADSVKGRFTIARDNSKNTLYLQMNSLRAEDTAVYYCAREGLLVGPTGRGLGMDVWGQGTTVTVSS
VL: DIQMTQSPSSLSASVGDRVTITCQASQDINNYLNWYQQKPGKAPKLLIYDASNLQTGVPSRFSGSGSGTDFTFTISSLQPEDIATYYCQQYADLPYTFGQGTKLQIK
B17: COVIC-293 (antibody, V domains shown)
VH: QVTLRESGPALVKPTQTLTLTCTFSGFSLSTSGMCVSWIRQPPGKALQWLARIDWDDDKYYSTSLKTRLTISKDTSKNQVVLTVTNVDPVDTGTYYCARVQVAAAGSPYDYWGQGTLVTVSS
VL: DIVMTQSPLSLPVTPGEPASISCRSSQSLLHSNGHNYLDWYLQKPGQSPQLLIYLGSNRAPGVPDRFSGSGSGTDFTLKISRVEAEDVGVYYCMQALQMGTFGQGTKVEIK
B18: COVIC-136 (antibody, V domains shown)
VH: EVQLLESGGGLIQPGGSLRLSCAASGFTVSSNYMSWVRQAPGKGLEWVSVIYSGGSTYYADSVKGRFTISRDNSKNTLYLQMNSLRAEDTAVYYCARDHVRPGMNIWGQGTMVTVSS
VL: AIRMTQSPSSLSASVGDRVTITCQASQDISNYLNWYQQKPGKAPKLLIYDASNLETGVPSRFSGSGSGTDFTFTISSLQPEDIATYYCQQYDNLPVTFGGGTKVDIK
B19: COVIC-262 (antibody, V domains shown)
VH: QVQLVQSGAEVKKPGSSVKVSCKASGGTSSSYAISWVRQAPGQGLEWIGGIIPIFDTTKYAQKFQGRVTITADESTNTAYMEVSSLRSEDTAVYYCAKVADRVGASTGELDYWGQGTLVTVSS
VL: EVVLTQSPATLSLSPGERGTLSCRASQSISNYLAWYQQKPGQAPRLLIYNASNRATGVPARFSGSGSGTDFTLTISSLEPEDFAVYYCQQRSNWPPWTFGQGTKVEIKR
B20: COVIC-170 (antibody, V domains shown)
VH: EVQLVQSGAEVKKPGESLKISCKGSGYSFTSYWIGWVRQMPGKGLEWMGIIYPGDSDTRYSPSFQGQVTISADKSISTAYLQWSSLKASDTAMYYCVRSYNWNYFDYWGQGTLVTVSS
VL: AIQLTQSPSSLSASVGDRVTITCRASQGISSGLAWYQQKAGKAPKLLIYDVSSLESGVPSRFSGSGSGTDFTLTISSLQPEDFATYYCQQFLSYPWTFGQGTKVEIKR
B21: COVIC-317 (antibody)
chain: EVQLLESGGGLVQPGGSLRLSCAASGRTFSEYAMGWFRQAPGKGLEFVSTISWSGGSTYYADSVKGRFTISRDNSKNTLYLQMNSLRAEDTAVYYCAAAGLGTVVSEWDYDYDYWGQGTLVTVSSGGGGSGGGGSASTKGPSVFPLAPSSKSTSGGTAALGCLVKDYFPEPVTVSWNSGALTSGVHTFPAVLQSSGLYSLSSVVTVPSSSLGTQTYICNVNHKPSNTKVDKKVEPKSCDKTHTAPELLGGPSVFLFPPKPKDTLMISRTPEVTCVVVDVSHEDPEVKFNWYVDGVEVHNAKTKPREEQYNSTYRVVSVLTVLHQDWLNGKEYKCKVSNKALPAPIEKTISKAKGQPREPQVYTLPPSRDELTKNQVSLTCLVKGFYPSDIAVEWESNGQPENNYKTTPPVLDSDGSFFLYSKLTVDKSRWQQGNVFSCSVMHEALHNHYTQKSLSLSPGKKKKPLDGEYFTLQIRGRERFEMFRELNEALELKDAQAGKEPGGGGGSGGGGSEVQLLESGGGLVQPGGSLRLSCAASGRTFSEYAMGWFRQAPGKGLEFVSTISWSGGSTYYADSVKGRFTISRDNSKNTLYLQMNSLRAEDTAVYYCAAAGLGTVVSEWDYDYDYWGQGTLVTVSS

Target: SARS-CoV-2 spike RBD (Wuhan-Hu-1) (Severe acute respiratory syndrome …, UniProt P0DTC2)
Experiment: SPR

Binder	Kd
B1	0.745 nM
B2	6.97 nM
B3	24.1 nM
B4	167 nM
B5	0.0703 nM
B6	90 nM
B7	0.155 nM
B8	201 nM
B9	15.1 nM
B10	6.31 nM
B11	44.6 nM
B12	107 nM
B13	115 nM
B14	0.209 nM
B15	0.233 nM
B16	0.0593 nM
B17	0.429 nM
B18	9.86 nM
B19	4.67 nM
B20	1.16 nM
B21	41.3 nM

Source: paper PMC12014896 (2025)
